Results reported in patent US9504755B2, “Multi-arm polymeric alkanoate conjugates” (Nektar Therapeutics, priority 2008, dated 2016).

Tests used:
[1] = Population pharmacokinetic modeling of terminal disposition rate constant, dogs; assay type: in vivo; conditions: dog
Excerpt: To further evaluate the sustained plasma docetaxel terminal half-life, a population pharmacokinetic approach was employed.
While determining the pharmacokinetics of docetaxel after administration of docetaxel or 4-ARM-PEG20K-BA-docetaxel, it was observed that reliable values for the terminal disposition rate constant λz could not be obtained for the majority of animals secondary to fluctuation of plasma docetaxel concentrations between adjacent sampling times and/or the occurrence of incomplete concentration-time profiles due to concentrations being near or at the lower limit of quantification (1 ng/mL). In addition, in Example 14, rats were sampled in groups of 15 using alternating, overlapping sparse sampling schemes across groups to encompass the total duration of sampling. All of these factors contributed to the occurrence of sparse data within a given animal's terminal concentration-time profile.
To further investigate and compare docetaxel terminal disposition patterns between docetaxel and 4-ARM-PEG20K-BA-docetaxel, population pharmacokinetic methods were applied to data from rats (Example 14) and dogs (Example 15 and in one additional study). This allowed estimation of population λz values and corresponding half-life values for each treatment group in the presence of incomplete data within individual animals. Specifically, data from all animals within a treatment group and all treatment groups were fit with a nonlinear mixed effect pharmacokinetic model using the program Monolix. Plasma docetaxel concentrations following docetaxel or 4-ARM-PEG20K-BA-docetaxel administration, and plasma 4-ARM-PEG20K-BA-docetaxel concentrations following 4-ARM-PEG20K-BA-docetaxel administration were fit with a model specifying zero-order input of the dose over a defined infusion period and biexponential disposition (Monolix PK Model 26). Docetaxel concentration-time data after 4-ARM-PEG20K-BA-docetaxel were fit with a model having first order input, to reflect metabolism of 4-ARM-PEG20K-BA-docetaxel to the active docetaxel metabolite, and biexponential disposition (Monolix PK Model 31). The parameter of interest for this investigation was the population terminal disposition rate constant, λz to supplement the results described above.
Dogs in the additional study received 7 mg/kg doses of 4-ARM-PEG20K-BA-docetaxel on Days 1 and 22 with serial blood sampling after each dose for determination of plasma 4-ARM-PEG20K-BA-docetaxel and docetaxel concentrations.

[2] = Pharmacokinetics after IV infusion in Beagle dogs; assay type: in vivo, dog
Description: The objective of the study was to assess the pharmacokinetics and excretion of docetaxel and 4-ARM-PEG20K-BA-docetaxel after intravenous infusion to dogs.
Pharmacokinetics were evaluated in male dogs (4 dogs/dose level) dosed with 0, 0.75, 2, or 4 mg/kg (0, 15, 40, and 80 mg/m^2/dose) of 4-ARM-PEG20K-BA-docetaxel or 0.75 mg/kg (15 mg/m^2) docetaxel. 4-ARM-PEG20K-BA-docetaxel and docetaxel were administered via a cephalic or saphenous vein disposable catheter as 60-min intravenous infusions at 4 mL/kg/hr. Seventeen blood samples were obtained by jugular venipuncture or Abbacoth IV catheter between 0 and 168 hr post-dose. Plasma concentrations of 4-ARM-PEG20K-BA-docetaxel and docetaxel were determined.

[3] = Plasma and tumor pharmacokinetics in H460 tumor-bearing nude mice; assay type: in vivo, mouse; conditions: for AUClast, analyte docetaxel, plasma / AUClast, analyte docetaxel, tumor / Tmax, analyte docetaxel, plasma / Tmax, analyte docetaxel, tumor / Cmax, analyte docetaxel, plasma / Cmax, analyte docetaxel, tumor: single IV; for AUClast, analyte docetaxel, plasma / AUClast, analyte docetaxel, tumor: 25 mg/kg docetaxel or 33 mg/kg conjugate (MTDs); for Tmax, analyte docetaxel, plasma / Tmax, analyte docetaxel, tumor / Cmax, analyte docetaxel, plasma / Cmax, analyte docetaxel, tumor: 25 mg/kg docetaxel or 33 mg/kg conjugate
Description: To assess whether the improved antitumor activity was due to greater plasma and tumor docetaxel exposure following 4-ARM-PEG20K-BA-DOC administration, plasma and tumor homogenates were analyzed after a single IV administration of 4-ARM-PEG20K-BA-DOC or docetaxel in mice bearing H460 tumors. In looking at each of 4-ARM-PEG20K-BA-DOC and docetaxel dosed at their respective maximum tolerated doses (MTDs) of 33 and 25 mg/kg, the following was observed. […] The maximum plasma docetaxel concentration with 4-ARM-PEG20K-BA-DOC was 13-fold lower than that with docetaxel.
The objective of this study was to compare docetaxel pharmacokinetics following 4-ARM-PEG20K-BA-docetaxel with that following docetaxel administration, in plasma and tumor tissue of athymic female mice bearing H460 NSCLC tumors and to determine the effects on complete blood counts. This example summarizes the pharmacokinetic results.
H460 tumor cells were grown in vitro and implanted subcutaneously into female HRLN nude mice. When tumor sizes reached between 172 and 288 mg, animals were dosed by intravenous bolus injection with 25 mg/kg docetaxel or 33 mg/kg 4-ARM-PEG20K-BA-docetaxel at a dosing volume of 10 mL/kg. These dose levels correspond to the maximum tolerated doses for docetaxel and 4-ARM-PEG20K-BA-docetaxel administered on a q7d×3 schedule in this tumor model. Blood and tumor samples (n=7 timepoints with n=3/timepoint) were collected from 0 to 7 days after IV injection. Plasma and tumor samples were analyzed for docetaxel and 4-ARM-PEG20K-BA-docetaxel.

[4] = additional study, conjugate 7 mg/kg on Days 1 and 22
[5] = docetaxel 0.75 mg/kg or conjugate 0.72, 2, 4 mg/kg
[6] = male dogs, average over 0.75, 2, 4 mg/kg
[7] = male dogs, single IV dose 0.75 mg/kg
[8] = male dogs, single IV dose 2 mg/kg
[9] = male dogs, single IV dose 4 mg/kg
[10] = 19 mg/kg conjugate (extrapolated) vs 25 mg/kg docetaxel
[11] = 33 mg/kg conjugate vs 25 mg/kg docetaxel
[12] = 33 mg/kg conjugate vs 25 mg/kg docetaxel, listed as Conjugate Lot 1
[13] = 33 mg/kg conjugate vs 25 mg/kg docetaxel, listed as Conjugate Lot 2
[14] = single IV 33 mg/kg conjugate, listed as Conjugate Lot 1, 33 mg/kg
[15] = single IV 33 mg/kg conjugate, listed as Conjugate Lot 2, 33 mg/kg
[16] = listed as 4-ARM-PEG20K-BA-docetaxel
[17] = female, HRLN nude, mouse, in vivo, iv, 25 mg/kg, analyte docetaxel, tumor

## 4-ARM-PEG20K-Butanoate-Linked Docetaxel Conjugate [4-ARM-PEG20K-BA-DOC]
[1]
  plasma docetaxel half-life, fold longer than after docetaxel: about 8 fold
[1]; [4]
  Mean (SE) λz, plasma conjugate: 0.0141 (0.00041) h^−1
  Mean (SE) λz, plasma docetaxel: 0.00627 (0.00086) hr^−1
  t½λz, plasma docetaxel: 110 h
[1]; [5]
  Mean (SE) λz, plasma docetaxel: 0.00349 (0.0021) hr^−1
  t½λz, plasma docetaxel: 199 h
[2]; dogs, equivalent dose levels of 0.75 mg/kg
  plasma docetaxel AUC, fold lower than after docetaxel: ~7 fold
[2]; [6]
  CL, analyte conjugate, average (±SD): 0.13 mL/min/kg
  T1/2, analyte conjugate, average (±SD): 32 ± 4 h
  Vss, analyte conjugate, average (±SD): 0.26 ± 0.04 L/kg
[2]; male dogs, average over 0.75, 2, 4 mg/kg, listed as 4-ARM-PEG20K-BA-docetaxel
  T1/2, analyte conjugate, average (±SD): 31 h
[2]; [7]
  AUCinf, analyte conjugate: 104.247 µg·h/mL
  AUClast, analyte conjugate: 93.084 µg·h/mL
  AUClast, analyte docetaxel: 0.064 µg·h/mL
  CL, analyte conjugate: 0.12 mL/min/kg
  Cmax, analyte conjugate: 7084 ng/mL
  Cmax, analyte docetaxel: 2.1 ng/mL
  T1/2, analyte conjugate: 28 h
  Tmax, analyte conjugate: 1.1 h
  Tmax, analyte docetaxel: 0.88 h
  Vss, analyte conjugate: 0.23 L/kg
[2]; [8]
  AUCinf, analyte conjugate: 245.446 µg·h/mL
  AUClast, analyte conjugate: 232.378 µg·h/mL
  AUClast, analyte docetaxel: 0.153 µg·h/mL
  CL, analyte conjugate: 0.14 mL/min/kg
  Cmax, analyte conjugate: 17731 ng/mL
  Cmax, analyte docetaxel: 6.3 ng/mL
  T1/2, analyte conjugate: 35 h
  Tmax, analyte conjugate: 1.4 h
  Tmax, analyte docetaxel: 1.1 h
  Vss, analyte conjugate: 0.26 L/kg
[2]; [9]
  AUCinf, analyte conjugate: 611.47 µg·h/mL
  AUClast, analyte conjugate: 597.336 µg·h/mL
  AUClast, analyte docetaxel: 0.326 µg·h/mL
  CL, analyte conjugate: 0.12 mL/min/kg
  Cmax, analyte conjugate: 33570 ng/mL
  Cmax, analyte docetaxel: 19 ng/mL
  T1/2, analyte conjugate: 32 h
  Tmax, analyte conjugate: 6.8 h
  Tmax, analyte docetaxel: 12 h
  Vss, analyte conjugate: 0.31 L/kg
[3]; 19 mg/kg (58% MTD), extrapolated from the 33 mg/kg dose
  AUC, docetaxel in plasma: 3488^# hr*ng/mL
[3]; [10]
  4-ARM-PEG20K-BA-DOC to Docetaxel Ratio, plasma AUC: 0.6
  4-ARM-PEG20K-BA-DOC to Docetaxel Ratio, tumor AUC: 1.3
[3]; 33 mg/kg
  conjugate AUC, fold lower in tumor compared to plasma: approximately 2 fold
  conjugate Cmax, fold lower in tumor compared to plasma: 17 fold
[3]; [11]
  Conjugate to Docetaxel ratio, AUC, docetaxel in plasma: 1.0
  Conjugate to Docetaxel ratio, AUC, docetaxel in tumor: 2.3
  maximum plasma docetaxel concentration, fold lower than with docetaxel: 13 fold
  plasma docetaxel AUC compared with docetaxel treatment: similar
  tumor docetaxel AUC, fold greater than for docetaxel: 2 fold
[3]; 33 mg/kg conjugate vs 25 mg/kg docetaxel, listed as 4-ARM-PEG20K-BA-docetaxel
  maximum plasma docetaxel concentration, fold lower than with docetaxel: about 14 fold
[3]; [12]
  Conjugate to Docetaxel ratio, AUC, docetaxel in plasma: 1.0
  Conjugate to Docetaxel ratio, AUC, docetaxel in tumor: 2.3
  Conjugate to Docetaxel ratio, Cmax, docetaxel in plasma: 0.08
  Conjugate to Docetaxel ratio, Cmax, docetaxel in tumor: 1.3
[3]; [13]
  Conjugate to Docetaxel ratio, AUC, docetaxel in plasma: 0.9
  Conjugate to Docetaxel ratio, AUC, docetaxel in tumor: 2.7
  Conjugate to Docetaxel ratio, Cmax, docetaxel in plasma: 0.06
  Conjugate to Docetaxel ratio, Cmax, docetaxel in tumor: 2.0
[3]; by 168 hr post-dose, 33 mg/kg
  conjugate tumor to plasma ratio: about 7
[3]; for up to 168 hr after single IV 33 mg/kg conjugate
  plasma docetaxel concentration: above 5 ng/mL
[3]; from 24 hr post dose through the end of sampling
  tumor docetaxel concentrations, fold higher than after docetaxel: approximately 5 fold
[3]; single IV 33 mg/kg conjugate
  Tmax, analyte conjugate, plasma: 0.5 h
[3]; single IV 33 mg/kg conjugate, listed as 4-ARM-PEG20K-BA-docetaxel, 33 mg/kg
  Tmax, analyte conjugate, tumor: ≤ 4 h
[3]; [14]
  AUClast, analyte conjugate, plasma: 1097.606 µg·h/mL
  AUClast, analyte conjugate, tumor: 652.823 µg·h/mL
  Cmax, analyte conjugate, plasma: 128354 ng/mL
  Cmax, analyte conjugate, tumor: 7062 ng/mL
  Tmax, analyte conjugate, tumor: 4 h
[3]; [15]
  AUClast, analyte conjugate, plasma: 1852.51 µg·h/mL
  AUClast, analyte conjugate, tumor: 718.068 µg·h/mL
  Cmax, analyte conjugate, plasma: 118209 ng/mL
  Cmax, analyte conjugate, tumor: 7675 ng/mL
[3]
  AUClast, analyte docetaxel, plasma: 6.013 µg·h/mL
  AUClast, analyte docetaxel, tumor: 313,558 hr*ng/mL
[3]; listed as Conjugate Lot 1
  AUClast, analyte docetaxel, tumor: 313558 ng·h/mL
  Cmax, analyte docetaxel, plasma: 195 ng/mL
  Cmax, analyte docetaxel, tumor: 2931 ng/mL
  Tmax, analyte docetaxel, plasma: 12 h
  Tmax, analyte docetaxel, tumor: 12 h
[3]; listed as Conjugate Lot 2
  AUClast, analyte docetaxel, plasma: 5.57 µg·h/mL
  AUClast, analyte docetaxel, tumor: 380617 ng·h/mL
  Cmax, analyte docetaxel, plasma: 162 ng/mL
  Cmax, analyte docetaxel, tumor: 4623 ng/mL
[3]; [16]
  Tmax, analyte docetaxel, plasma: 0.5 h
  Tmax, analyte docetaxel, tumor: ≤ 12 h

## CC(=O)O[C@@]12CO[C@@H]1C[C@H](O)[C@@]1(C)C(=O)[C@H](O)C3=C(C)[C@@H](OC(=O)[C@H](O)[C@@H](NC(=O)OC(C)(C)C)c4ccccc4)C[C@@](O)([C@@H](OC(=O)c4ccccc4)[C@H]21)C3(C)C [Docetaxel, reference compound]
[1]; in vivo
  t½λz, plasma docetaxel: 25 h
[2]; Beagle, dog, plasma, male dogs, single IV dose 0.75 mg/kg, read-out: AUClast, analyte docetaxel
  AUC(0-t): 0.479 µg·h/mL
[2]; Beagle, dog, plasma, male dogs, single IV dose 0.75 mg/kg, read-out: Cmax, analyte docetaxel
  Cmax: 223 ng/mL
[2]; Beagle, dog, plasma, male dogs, single IV dose 0.75 mg/kg, read-out: Tmax, analyte docetaxel
  Tmax: 0.88 h
[3]; female, HRLN nude, mouse, in vivo, iv, 25 mg/kg
  concentration at 72 hr: < 1 ng/mL
[3]; female, HRLN nude, mouse, in vivo, iv, 25 mg/kg, AUClast, analyte docetaxel, tumor
  AUC(0-t): 139 µg·h/mL
[3]; female, HRLN nude, mouse, in vivo, iv, 25 mg/kg, analyte docetaxel, plasma
  Cmax: 2570 ng/mL
[3]; [17]
  Cmax: 2340 ng/mL
  Tmax: 4 h
[3]; female, HRLN nude, mouse, in vivo, iv, analyte docetaxel, plasma
  Tmax: 0.5 h
[3]; female, HRLN nude, mouse, in vivo, iv, analyte docetaxel, tumor
  Tmax: ≤ 4 h
